These are literature values, as cited in patent US20120245117A1, “METHODS OF TREATING SQUAMOUS CELL LUNG CANCER WITH 4-IODO-3-NITROBENZAMIDE IN COMBINATION WITH GEMCITABINE AND CARBOPLATIN” (priority 2011, published 2012).

The subject of this data set is SqCLC. The settings on record: SqCLC patients; combination with carboplatin/paclitaxel; cited from earlier work.

B1: CP-751,871: an anti-IGF-1R monoclonal antibody (antibody, chains of the INN, looked up)
heavy: EVQLLESGGGLVQPGGSLRLSCTASGFTFSSYAMNWVRQAPGKGLEWVSAISGSGGTTFYADSVKGRFTISRDNSRTTLYLQMNSLRAEDTAVYYCAKDLGWSDSYYYYYGMDVWGQGTTVTVSSASTKGPSVFPLAPCSRSTSESTAALGCLVKDYFPEPVTVSWNSGALTSGVHTFPAVLQSSGLYSLSSVVTVPSSNFGTQTYTCNVDHKPSNTKVDKTVERKCCVECPPCPAPPVAGPSVFLFPPKPKDTLMISRTPEVTCVVVDVSHEDPEVQFNWYVDGVEVHNAKTKPREEQFNSTFRVVSVLTVVHQDWLNGKEYKCKVSNKGLPAPIEKTISKTKGQPREPQVYTLPPSREEMTKNQVSLTCLVKGFYPSDIAVEWESNGQPENNYKTTPPMLDSDGSFFLYSKLTVDKSRWQQGNVFSCSVMHEALHNHYTQKSLSLSPG
light: DIQMTQFPSSLSASVGDRVTITCRASQGIRNDLGWYQQKPGKAPKRLIYAASRLHRGVPSRFSGSGSGTEFTLTISSLQPEDFATYYCLQHNSYPCSFGQGTKLEIKRTVAAPSVFIFPPSDEQLKSGTASVVCLLNNFYPREAKVQWKVDNALQSGNSQESVTEQDSKDSTYSLSSTLTLSKADYEKHKVYACEVTHQGLSSPVTKSFNRGEC
As for B1, the response rate was ~78% and the toxicity result is given as “strong toxicity”.
